From the supplement of paper PMC10567573
± gives the standard deviation.

Assay: protein stability index of a GFP-peptide fusion (GPS, HEK-293T) (PSI 1-6); higher = more stable
Conditions: c terminus: a fixed tail appended
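Further: 24-mer peptide tiles fused after GFP, lentivirally expressed, FACS-sorted into six equal bins by GFP/DsRed ratio, decoded by Illumina sequencing, PSI is the read-weighted mean bin number.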

| Sequence | protein stability index (treatment: DMSO) | protein stability index (treatment: MLN4924 1 uM, 8 h) |
| --- | --- | --- |
| VPFVRVKREREVDEDSEPEREVRA [USP39] | 5.15 ± 0.26 | 5.17 ± 0.14 |
| SMNFSMMSTNTVGLGLPMSRSQNT [CLINT1] | 3.19 ± 0.36 | 3.44 ± 0.38 |
| VLQIDNARLAADDFRVKYETELAM [KRT18] | 3.04 ± 0.12 | 3.3 ± 0.33 |
| PVPGKTLHLPIMGVVMKVRIPTCH [DENND6A] | 2.43 ± 0.72 | 2.45 ± 0.38 |
| LGPLGSTAFLPDSKCLVDDGTGRM [GALNT9] | 3.89 ± 0.36 | 4.24 ± 0.21 |
| GEGTGSPPKWQIGEQEFEALMRML [ADD1] | 3.29 ± 0.45 | 3.2 ± 0.31 |
| SIPLMGFEFEVRVCDSCHEAITDE [WDFY2] | 3.38 ± 0.17 | 3.54 ± 0.32 |
| DDATLSRLELERKIESLMDEIEFL [PRPH] | 4 ± 0.23 | 3.88 ± 0.28 |
| FVMFLCLADYLVPILAPRIFGSNK [ARL6IP1] | 3.21 ± 0.48 | 3.17 ± 0.62 |
| APIRVRNLTIRAGALTGKENNMLQ [DMRTC1] | 3.46 ± 0.23 | 3.26 ± 0.19 |
| NPALEGLTQPLQGGTPHCEPCQLP [DNAAF3] | 4.89 ± 0.36 | 4.97 ± 0.24 |
| RPRQRQRVYPKCTWLTTPKSTWPR [TCF25] | 3.17 ± 0.43 | 3.23 ± 0.2 |
| CANFGDQGITMGCWDMYRHDIDCQ [LOXL2] | 2.42 ± 0.29 | 2.6 ± 0.57 |
| FEGFQAVSLKQEGDDQPSETDHLS [TPRG1] | 5.51 ± 0.17 | 5.54 ± 0.23 |
| RVQPVKDTAHDFRAKCRNMEHALR [TRIM35] | 2.96 ± 0.44 | 3.25 ± 0.36 |
| MEKIPFVLGGNLQGGELVVAYPYD [CPXM2] | 2.81 ± 0.48 | 2.79 ± 0.77 |
| HEEEVSVLRCQLGDRLNVEVDAAP [KRT36] | 5.17 ± 0.26 | 4.95 ± 0.32 |
| RPVNKLAELQCEVAALREEQKVLS [RASAL3] | 3.99 ± 0.35 | 4.19 ± 0.26 |
| SSTKPPKSRRKAALSSPRSRKNAT [INTS3] | 4.89 ± 0.19 | 5.04 ± 0.14 |
| PEVILELGWAQPCDVWSIGCILFE [CLK3] | 2.63 ± 0.5 | 3.55 ± 1 |
| TADHRIYSYVVSRPQPRGLLGWGY [FAF2] | 2.16 ± 0.37 | 2.21 ± 0.22 |
| KFSPDGKYVVSGFDVDHGICIMDA [WDR88] | 2.69 ± 0.21 | 3.13 ± 0.49 |
| NETGYLSSVECYNLETNEWRYVSS [KLHL14] | 2.61 ± 0.32 | 2.91 ± 0.57 |

| Sequence | protein stability index (treatment: DMSO) | protein stability index (treatment: MLN4924 1 uM, 8 h) |
| --- | --- | --- |
| VPSSGYGAVTASKHSNSPPLVTPP [SMTNL2] | 4.29 ± 0.14 | 4.16 ± 0.15 |
| EEREEGPPRIPQADQWKSSNKSLV [RHOBTB1] | 4.99 ± 0.22 | 5.08 ± 0.29 |
| YKRRIDAENSPYLNPQLVQPAKKP [ESRRG] | 4.01 ± 0.27 | 3.85 ± 0.33 |
| PGGVYAGPEPPPVYTNLSSYSPAS [JUNB] | 3.94 ± 0.27 | 4.18 ± 0.41 |
| VLRSRIRFIHLVTGCVLGSSGKVL [POMT2] | 2.62 ± 0.59 | 2.63 ± 0.76 |
| SLYGENSNSLSSAEPLKEDKPVTG [ATF6] | 4.54 ± 0.1 | 4.58 ± 0.22 |
| RNRPSFDAILYYYQSGGRIRRPVN [KCNA3] | 2.3 ± 0.22 | 2.58 ± 0.31 |
| FQNAERAFKAAALIQRWYRRYVAR [PPEF2] | – | 5.54 ± 0.23 |
| LLPMLDALRFTADVRSVLSRNLHQ [CTDNEP1] | 2.5 ± 0.37 | 2.1 ± 0.21 |
| SSYFDSFQEAQIKRKARNEGRNRR [CDKL4] | 3.93 ± 0.76 | 4.96 ± 0.35 |
| KEAVQNERDRISTRRSSYEDSSLP [HNF4A] | 5.07 ± 0.31 | 5.14 ± 0.25 |
| AQQIRLHHFNSSHLEIDDMYTPAY [MYORG] | 2.86 ± 0.26 | 2.91 ± 0.21 |
| DYFISYGIEHAQCVPPSEFSEPSF [ETS1] | 2.49 ± 0.26 | 2.67 ± 0.18 |
| LNQVADLLEQSLEEFAQAESKDQG [ALDH8A1] | 5.18 ± 0.14 | 5.21 ± 0.53 |
| GGMQALGLHLTDPSQRLVQNCLWT [CTNNB1] | 2.11 ± 0.13 | 2.1 ± 0.44 |
| GGDHRYVNNYTNSFGGEWSAPDTM [TRIM29] | 3.51 ± 0.44 | 3.51 ± 0.32 |
| LNRSESDIRYLLGYVSQQGGQRST [FEM1B] | 3.73 ± 0.19 | 3.59 ± 0.33 |
| AWNPEDRSLNVFVKDDDRLTFHRH [SPSB4] | 3.65 ± 0.27 | 3.76 ± 0.19 |
| AGGSSSTPTPQALYPDLSCPEGLE [SPSB2] | 5.15 ± 0.31 | 5.21 ± 0.25 |
| GHWTNVTPMATKRSGAGVALLNDH [KLHL12] | 3.48 ± 0.079 | 3.62 ± 0.085 |
| LNKELNENQLVRKQDVLGPSTTPP [SASS6] | 5 ± 0.2 | 5.1 ± 0.071 |
| EEEPGVRNGMASEGLNSSLCSPGH [PSD2] | 5.1 ± 0.23 | 5.26 ± 0.13 |
